Measurements from article doi:10.1101/356592 (bioRxiv, 2018).

B1: His6-tagged Dmc1 (natural protein, Saccharomyces cerevisiae, UniProt P25453 1-334, looked up)
chain: MSVTGTEIDSDTAKNILSVDELQNYGINASDLQKLKSGGIYTVNTVLSTTRRHLCKIKGLSEVKVEKIKEAAGKIIQVGFIPATVQLDIRQRVYSLSTGSKQLDSILGGGIMTMSITEVFGEFRCGKTQMSHTLCVTTQLPREMGGGEGKVAYIDTEGTFRPERIKQIAEGYELDPESCLANVSYARALNSEHQMELVEQLGEELSSGDYRLIVVDSIMANFRVDYCGRGELSERQQKLNQHLFKLNRLAEEFNVAVFLTNQVQSDPGASALFASADGRKPIGGHVLAHASATRILLRKGRGDERVAKLQDSPDMPEKECVYVIGEKGITDSSD

Experiments:
[1] = target: Replication protein A (RPA) (Saccharomyces cerevisiae, UniProt P22336 1-621; P26754 1-273; P26755 1-122); assay: pull-down
His6-tagged Dmc1 = target: B1; assay: co-IP

Sequence of Replication protein A (RPA) (P22336 whole entry, chain 1 of 3): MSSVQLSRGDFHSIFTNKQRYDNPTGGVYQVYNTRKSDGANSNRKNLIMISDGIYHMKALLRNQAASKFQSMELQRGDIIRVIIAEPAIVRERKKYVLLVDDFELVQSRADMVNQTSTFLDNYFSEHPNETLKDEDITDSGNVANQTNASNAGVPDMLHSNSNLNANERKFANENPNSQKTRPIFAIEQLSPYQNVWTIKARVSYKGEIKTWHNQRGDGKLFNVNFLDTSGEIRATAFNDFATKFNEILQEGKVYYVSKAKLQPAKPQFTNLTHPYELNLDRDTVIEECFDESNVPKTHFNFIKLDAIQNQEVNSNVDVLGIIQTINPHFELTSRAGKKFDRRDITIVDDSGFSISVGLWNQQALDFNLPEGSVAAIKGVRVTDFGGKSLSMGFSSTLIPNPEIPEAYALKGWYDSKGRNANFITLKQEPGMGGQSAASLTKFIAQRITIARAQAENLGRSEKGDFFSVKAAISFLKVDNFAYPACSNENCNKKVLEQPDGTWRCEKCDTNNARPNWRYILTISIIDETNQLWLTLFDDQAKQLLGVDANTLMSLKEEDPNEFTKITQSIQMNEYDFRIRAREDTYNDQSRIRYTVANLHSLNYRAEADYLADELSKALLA
Sequence of Replication protein A (RPA) (P26754 whole entry, chain 2 of 3): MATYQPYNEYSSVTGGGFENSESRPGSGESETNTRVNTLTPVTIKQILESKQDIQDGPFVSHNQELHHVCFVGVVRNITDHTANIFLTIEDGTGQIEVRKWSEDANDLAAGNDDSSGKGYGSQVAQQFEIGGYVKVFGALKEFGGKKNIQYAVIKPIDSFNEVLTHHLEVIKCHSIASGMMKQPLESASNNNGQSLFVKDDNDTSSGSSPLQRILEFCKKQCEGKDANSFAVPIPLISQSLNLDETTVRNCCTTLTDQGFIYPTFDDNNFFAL
Sequence of Replication protein A (RPA) (P26755 whole entry, chain 3 of 3): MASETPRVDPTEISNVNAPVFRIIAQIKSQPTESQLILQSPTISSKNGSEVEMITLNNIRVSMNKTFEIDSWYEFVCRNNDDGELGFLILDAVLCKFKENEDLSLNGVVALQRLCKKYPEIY

Binder | binding result [1] | binding result (His6-tagged Dmc1)
B1 | binds | –
His6-tagged Mei5-Sae3 heterodimer (complex, Saccharomyces cerevisiae) chain 1: MHNQEEWLDKDKTLVNEEENTCINHSYTKKDTNNYRVGKSGIKDLKKPTNQKEIAIKNRELTKQLTLLRQENNHLQQACKILSENKIIENRKSIEKWRTICEMELSFILNSTLIKINRMGGYKDFLEKEMEAKKRRLEYQIDNGMEDQICEIKESDDFRQLSEVEKQEWESQMNEQLKELEKKKIAELEKLNKVLHDSEGKDFGMAELCTRLKLDYSLIFPQ chain 2: MNYLETQLNKKQKQIQEYESMNGNLIKMFEQLSKEKKNDETPKKISSTYIKELKEYNELRDAGLRLAQIIADEKQCKIKDVFEEIGYSMKD | binds | binds
